Experiment [1] addresses rHuman ErbB2/Fc Chimera (human) (UniProt P04626). Description: ECL (MSD) multispot assay, antigen spotted; blank spot of this row 236.
The target of experiment [2] is Recombinant Human DLL4 (R&D Systems Cat#1506-D4/CF) (human) (UniProt Q9NR61). Description: ELISA, DLL4 coated on plate, Fab at […] (cells of this row shifted one column left). (An ELISA detects its analyte on a solid surface through an enzyme-linked reagent.)
For experiment [3], the target named is rHuman ErbB2/Fc Chimera, CF (R&D Systems Cat#1129-ER) (human) (UniProt P04626). Description: ECL multispot (MSD) binding assay, antigen spotted on plate, Fab 0.04 uM.
Experiment [4] concerns the target rHuman EGF R/Fc Chimera, CF (R&D Systems Cat#344-ER) (human) (UniProt P00533). Described as above.
The target in experiment [5] is rHuman ErbB2/Fc Chimera (human) (UniProt P04626). Description: ECL (MSD) multispot assay, antigen spotted; blank spot of this row 223.
Experiment [6] addresses rHuman IGF-1 sR, (IGF-1 sR), CF (R&D Systems Cat#391-GR) (human) (UniProt P08069). Description: MSD Multispot ECL, antigen spotted on plate, Fab at 480 nM; blank spot 362.
In experiment [7] the target is rHuman ErbB2/Fc Chimera, CF (R&D Systems Cat#1129-ER) (human) (UniProt P04626). The experiment is described as above.
The target in experiment [8] is rHuman EGF R/Fc Chimera, CF (R&D Systems Cat#344-ER) (human) (UniProt P00533). The description is as above.
Experiment [9] addresses rHuman HGF R/c-MET/Fc Chimera, CF (R&D Systems Cat#358-MT/CF) (human) (UniProt P08581). The description is as above.
In experiment [10] the target is rHuman IGF-1 sR, (IGF-1 sR), CF (R&D Systems Cat#391-GR) (human) (UniProt P08069). Put plainly: MSD Multispot ECL, antigen spotted on plate, Fab at 240 nM; blank spot 316.
Experiment [11] addresses rHuman ErbB2/Fc Chimera, CF (R&D Systems Cat#1129-ER) (human) (UniProt P04626). The experiment is described as above.
The target of experiment [12] is rHuman EGF R/Fc Chimera, CF (R&D Systems Cat#344-ER) (human) (UniProt P00533). The description is as above.
The target of experiment [13] is rHuman HGF R/c-MET/Fc Chimera, CF (R&D Systems Cat#358-MT/CF) (human) (UniProt P08581). Described as above.
rHuman HGF R/c-MET/Fc Chimera, CF (R&D Systems Cat#358-MT/CF) (human), sequence (P08581 25-932, change not shown): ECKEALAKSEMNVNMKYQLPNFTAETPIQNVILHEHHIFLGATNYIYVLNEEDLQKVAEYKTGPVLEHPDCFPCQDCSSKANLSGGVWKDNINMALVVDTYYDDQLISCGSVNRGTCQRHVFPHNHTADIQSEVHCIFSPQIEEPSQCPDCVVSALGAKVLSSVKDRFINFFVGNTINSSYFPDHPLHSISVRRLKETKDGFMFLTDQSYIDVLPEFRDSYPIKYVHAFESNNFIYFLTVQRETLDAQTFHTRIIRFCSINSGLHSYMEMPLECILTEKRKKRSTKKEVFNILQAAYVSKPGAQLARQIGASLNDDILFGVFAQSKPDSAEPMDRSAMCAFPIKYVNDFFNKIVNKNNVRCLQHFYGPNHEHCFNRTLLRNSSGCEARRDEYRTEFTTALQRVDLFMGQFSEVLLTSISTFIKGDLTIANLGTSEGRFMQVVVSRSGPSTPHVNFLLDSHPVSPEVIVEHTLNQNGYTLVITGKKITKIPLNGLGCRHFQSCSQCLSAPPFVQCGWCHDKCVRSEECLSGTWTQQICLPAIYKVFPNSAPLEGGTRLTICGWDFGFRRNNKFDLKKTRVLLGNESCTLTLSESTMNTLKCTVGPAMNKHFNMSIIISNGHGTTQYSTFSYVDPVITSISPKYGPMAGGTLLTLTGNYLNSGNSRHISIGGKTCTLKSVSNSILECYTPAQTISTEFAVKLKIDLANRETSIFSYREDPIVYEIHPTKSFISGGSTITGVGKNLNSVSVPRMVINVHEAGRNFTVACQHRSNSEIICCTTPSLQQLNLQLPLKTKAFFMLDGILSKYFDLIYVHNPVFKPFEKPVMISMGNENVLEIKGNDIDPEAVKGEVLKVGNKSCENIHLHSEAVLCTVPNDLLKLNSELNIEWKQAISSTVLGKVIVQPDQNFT
Experiment [14] addresses rHuman IGF-1 sR, (IGF-1 sR), CF (R&D Systems Cat#391-GR) (human) (UniProt P08069). Description: MSD Multispot ECL, antigen spotted on plate, Fab at 120 nM; blank spot 363.
Experiment [15] has as its target rHuman ErbB2/Fc Chimera, CF (R&D Systems Cat#1129-ER) (human) (UniProt P04626). The experiment is described as above.
The target of experiment [16] is rHuman EGF R/Fc Chimera, CF (R&D Systems Cat#344-ER) (human) (UniProt P00533). The experiment is described as above.
The target in experiment [17] is rHuman HGF R/c-MET/Fc Chimera, CF (R&D Systems Cat#358-MT/CF) (human) (UniProt P08581). The experiment is described as above.
Experiment [18] concerns the target rHuman IGF-1 sR, (IGF-1 sR), CF (R&D Systems Cat#391-GR) (human) (UniProt P08069). Put plainly: MSD Multispot ECL, antigen spotted on plate, Fab at 60 nM; blank spot 237.
The target of experiment [19] is rHuman ErbB2/Fc Chimera, CF (R&D Systems Cat#1129-ER) (human) (UniProt P04626). Described as above.
For experiment [20], the target named is rHuman EGF R/Fc Chimera, CF (R&D Systems Cat#344-ER) (human) (UniProt P00533). The description is as above.
In experiment [21] the target is rHuman HGF R/c-MET/Fc Chimera, CF (R&D Systems Cat#358-MT/CF) (human) (UniProt P08581). The experiment is described as above.
In experiment [22] the target is rHuman IGF-1 sR, (IGF-1 sR), CF (R&D Systems Cat#391-GR) (human) (UniProt P08069). Put plainly: MSD Multispot ECL, antigen spotted on plate, Fab at 3.8 nM; blank spot 198.
Experiment [23] concerns the target rHuman ErbB2/Fc Chimera, CF (R&D Systems Cat#1129-ER) (human) (UniProt P04626). Described as above.
In experiment [24] the target is rHuman EGF R/Fc Chimera, CF (R&D Systems Cat#344-ER) (human) (UniProt P00533). The description is as above.
Experiment [25] addresses rHuman HGF R/c-MET/Fc Chimera, CF (R&D Systems Cat#358-MT/CF) (human) (UniProt P08581). Described as above.
Experiment [26] addresses rHuman IGF-1 sR, (IGF-1 sR), CF (R&D Systems Cat#391-GR) (human) (UniProt P08069). Description: MSD Multispot ECL, antigen spotted on plate, Fab at 15 nM; blank spot 261.
The target of experiment [27] is rHuman ErbB2/Fc Chimera, CF (R&D Systems Cat#1129-ER) (human) (UniProt P04626). The experiment is described as above.
The target in experiment [28] is rHuman EGF R/Fc Chimera, CF (R&D Systems Cat#344-ER) (human) (UniProt P00533). The description is as above.
In experiment [29] the target is rHuman HGF R/c-MET/Fc Chimera, CF (R&D Systems Cat#358-MT/CF) (human) (UniProt P08581). Described as above.
Experiment [30] deals with rHuman IGF-1 sR, (IGF-1 sR), CF (R&D Systems Cat#391-GR) (human) (UniProt P08069). Description: MSD Multispot ECL, antigen spotted on plate, Fab at 30 nM; blank spot 213.
The target of experiment [31] is rHuman ErbB2/Fc Chimera, CF (R&D Systems Cat#1129-ER) (human) (UniProt P04626). Described as above.
Experiment [32] deals with rHuman EGF R/Fc Chimera, CF (R&D Systems Cat#344-ER) (human) (UniProt P00533). The experiment is described as above.
In experiment [33] the target is rHuman HGF R/c-MET/Fc Chimera, CF (R&D Systems Cat#358-MT/CF) (human) (UniProt P08581). The experiment is described as above.
For experiment [34], the target named is rHuman IGF-1 sR, (IGF-1 sR), CF (R&D Systems Cat#391-GR) (human) (UniProt P08069). Description: MSD Multispot ECL, antigen spotted on plate, Fab at 7.5 nM; blank spot 217.
The target in experiment [35] is rHuman ErbB2/Fc Chimera, CF (R&D Systems Cat#1129-ER) (human) (UniProt P04626). Described as above.
For experiment [36], the target named is rHuman EGF R/Fc Chimera, CF (R&D Systems Cat#344-ER) (human) (UniProt P00533). Described as above.
The target in experiment [37] is rHuman HGF R/c-MET/Fc Chimera, CF (R&D Systems Cat#358-MT/CF) (human) (UniProt P08581). The description is as above.
The target of experiment [38] is rHuman EGF R/Fc Chimera, CF (R&D Systems Cat#344-ER) (human) (UniProt P00533). Put plainly: Multispot ECL (MSD) titration; antigen spotted on plate; Fab 98.1 nM; blank spot 210.
Experiment [39] has the same target. Put plainly: Multispot ECL (MSD) titration; antigen spotted on plate; Fab 392.5 nM; blank spot 338.
Experiment [40] shares this target. Description: Multispot ECL (MSD) titration; antigen spotted on plate; Fab […]; blank spot 149.
The target is the same in experiment [41]. Description: Multispot ECL (MSD) titration; antigen spotted on plate; Fab 1570 nM; blank spot 866.

Where a chain is given by its changes, count along the chain named. Numbers in names are those of the source.

B1: Fab VH5-51_IGHD5-18*01>3_IGHJ4*01 G100K/G104T S84V & V3-4_IGLJ1*01 (Fab, V domains shown)
VH: EVQLVQSGAEVKKPGESLKISCKGSGYSFTSYWIGWVRQMPGKGLEWMGIIYPGDSDTRYSPSFQGQVTISADKSISTAYLQWVSLKASDTAMYYCARRKYSYTYDYFDYWGQGTLVTVSS
VL: QTVVTQEPSFSVSPGGTVTLTCGLSSGSVSTSYYPSWYQQTPGQAPRTLIYSTNTRSSGVPDRFSGSILGNKAALTITGAQADDESDYYCVLYMGSGISYVFGTGTKVTVL
With B1, in experiment [1], the ECL signal was 1040.

B2: Fab VH5-51_IGHD5-18*01>3_IGHJ4*01 G100K/G104T S28R (H:KT S28R) & V3-4_IGLJ1*01 M94R/S96M (L:RM) (Fab, V domains shown)
VH: B1 VH with S28R, V84S
VL: B1 VL with M94R, S96M
As to B2, in experiment [2], the ELISA signal was 0.001.

B3: Fab VH5-51_IGHD5-18*01>3_IGHJ4*01 G100K/G104T (H:KT) & V3-4_IGLJ1*01 G97A (Fab, V domains shown)
VH: B1 VH with V84S
VL: B1 VL with G97A
Turning to B3, the ECL signal in experiment [3] stood at 1290; in [4], 1060.

B4: Fab VH5-51_IGHD5-18*01>3_IGHJ4*01 G100K/G104T S84L & V3-4_IGLJ1*01 (Fab, V domains shown)
VH: B1 VH with V84L
VL: B1 VL
In [5], B4 gave an ECL signal of 1090.

B5: Fab VH6-1_IGHD3-3*01_IGHJ4*01 & V4-3_IGLJ4*01 (Fab, V domains shown)
VH: QVQLQQSGPGLVKPSQTLSLTCAISGDSVSSNSAAWNWIRQSPSRGLEWLGRTYYRSKWYNDYAVSVKSRITINPDTSKNQFSLQLNSVTPEDTAVYYCAREYYDFWSGYYTDYFDYWGQGTLVTVSS
VL: QPVLTQPTSLSASPGASARLTCTLRSGINLGSYRIFWYQQKPESPPRYLLSYYSDSSKHQGSGVPSRFSGSKDASSNAGILVISGLQSEDEADYYCMIWHSSASFVFGGGTQLIIL
On to B5, for which the ECL signal is 741 in experiment [6]; 965 in [7]; 877 in [8]; 951 in [9]; 625 in [10]; 833 in experiment [11]. In addition, the ECL signal in experiment [12] worked out at 690; in [13] it was 834; in [14], 813; in experiment [15] it was 822; in experiment [16], 658; in experiment [17], 785. The ECL signal in experiment [18] was determined as 654; in experiment [19], 777; in experiment [20], 679; in [21], 623; in experiment [22], 463; in experiment [23], 714. For the same molecule, the ECL signal in [24] is 511; in [25], 519; in experiment [26], 705; in experiment [27], 713; in [28], 584; in [29], 694. The ECL signal was 697 in experiment [30]; 726 in [31]; 585 in [32]; 640 in experiment [33]; 642 in experiment [34]; 695 in experiment [35]. Moreover, the ECL signal in experiment [36] was 582; in [37], 558.

B6: Fab VH1-46_IGHD3-10*01_IGHJ4*01 & O1_IGKJ1*01 (Fab, V domains shown)
VH: QVQLVQSGAEVKKPGASVKVSCKASGYTFTSYYMHWVRQAPGQGLEWMGIINPSGGSTSYAQKFQGRVTMTRDTSTSTVYMELSSLRSEDTAVYYCAREYYYGSGSYYNDYFDYWGQGTLVTVSS
VL: DIVMTQTPLSLPVTPGEPASISCRSSQSLLDSDDGNTYLDWYLQKPGQSPQLLIYTLSYRASGVPDRFSGSGSGTDFTLKISRVEAEDVGVYYCMQRIEFPSWTFGQGTKVEIKR
With B6, the ECL signal in [38] amounted to 4390; in [39], 744; in experiment [40] it was 317; in experiment [41] it was 2480.
